Laboratory results: paper PMC7364481, “Identification and validation of the phosphorylation sites on Aristaless-related homeobox protein”

Key:
Test in all cases: EMSA; 5 ug protein per lane; LightShift chemiluminescent EMSA kit, 6% polyacrylamide gel, 5 ug protein per lane; binding buffer, salt, pH and temperature not stated (protein eluted in 50 mM Tris-Cl pH 8.0, 30 mM glutathione)
Conditions in all cases: protein: recombinant; tags: N-terminal GST (pGEX-4T-2); label: biotin; blunt
GST-ARX(220-392) WT = GST-ARX(220-392) WT (UniProt O35085 220-392)
Sequence of GST-ARX(220-392) WT (O35085 220-392): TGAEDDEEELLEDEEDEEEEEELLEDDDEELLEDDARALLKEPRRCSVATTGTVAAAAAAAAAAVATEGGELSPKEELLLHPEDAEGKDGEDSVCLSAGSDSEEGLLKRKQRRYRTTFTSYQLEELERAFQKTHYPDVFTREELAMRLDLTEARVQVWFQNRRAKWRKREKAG

GST-ARX(220-392) S266A = GST-ARX(220-392) S266A (UniProt O35085 220-392, S266A)
Sequence of GST-ARX(220-392) S266A (O35085 220-392 S266A): as the sequence (O35085 220-392) above, with S47A counted along it

GST-ARX(220-392) S266E = GST-ARX(220-392) S266E (UniProt O35085 220-392, S266E)
Sequence of GST-ARX(220-392) S266E (O35085 220-392 S266E): as the sequence (O35085 220-392) above, with S47E counted along it

Measured: binding result

B1: SIX1 probe (dsDNA)
DNA 1: TCTTAACATTAAGGTAATTAAATATGAGCTCAC
DNA 2: GTGAGCTCATATTTAATTACCTTAATGTTAAGA
binds: all assays above
